# What was measured:
# Assay in all cases: holdup assay
# Set-up in all cases: key: below the threshold = too weak to quantify, mostly under pKd 3.1 to 4
# APBA1_2, Q02410 = target: T1, APBA1_2, Q02410; conditions: plain residues with an end cap or a label only (N-terminal biotin on a linker: ttds)
# T1 sequence (Q02410 742-832, limits assumed, looked up): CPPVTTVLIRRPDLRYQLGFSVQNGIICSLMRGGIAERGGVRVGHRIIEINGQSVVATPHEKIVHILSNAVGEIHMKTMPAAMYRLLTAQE
# ARHGAP21, Q5T5U3 = target: T2, ARHGAP21, Q5T5U3; conditions: plain residues with an end cap or a label only (N-terminal biotin on a linker: ttds)
# T2 sequence (Q5T5U3 45-169, limits assumed, looked up): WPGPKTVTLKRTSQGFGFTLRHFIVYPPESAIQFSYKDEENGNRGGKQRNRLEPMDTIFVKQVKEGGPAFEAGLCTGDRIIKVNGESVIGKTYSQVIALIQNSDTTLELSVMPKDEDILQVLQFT
# ARHGEF11, O15085 = target: T3, ARHGEF11, O15085
# T3 sequence (O15085 42-136, limits assumed, looked up): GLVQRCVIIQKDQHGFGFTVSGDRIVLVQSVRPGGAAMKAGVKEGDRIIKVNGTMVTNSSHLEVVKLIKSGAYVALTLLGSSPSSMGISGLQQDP
# FRMPD3, Q5JV73 = conditions: plain residues with an end cap or a label only (N-terminal biotin on a linker: ttds)
# FRMPD3, Q5JV73, sequence (Q5JV73 12-100): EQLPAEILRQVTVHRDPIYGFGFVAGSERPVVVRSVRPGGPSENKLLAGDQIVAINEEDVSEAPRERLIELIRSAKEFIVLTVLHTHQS
# GIPC2, Q8TF65 = conditions: plain residues with an end cap or a label only (N-terminal biotin on a linker: ttds)
# GIPC2, Q8TF65, sequence (Q8TF65 112-203): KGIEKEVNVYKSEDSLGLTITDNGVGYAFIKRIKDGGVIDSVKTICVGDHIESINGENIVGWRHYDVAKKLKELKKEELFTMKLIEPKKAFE
# GRID2IP_2, A4D2P6 = conditions: plain residues with an end cap or a label only (N-terminal biotin on a linker: ttds)
# GRID2IP_2, A4D2P6, sequence (A4D2P6 272-370): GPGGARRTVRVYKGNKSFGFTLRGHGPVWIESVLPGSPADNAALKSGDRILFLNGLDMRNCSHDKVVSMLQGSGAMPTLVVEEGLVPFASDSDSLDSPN
# Inadl_1, Q8NI35 = conditions: plain residues with an end cap or a label only (N-terminal biotin on a linker: ttds)
# Inadl_1, Q8NI35, sequence (Q8NI35 113-229): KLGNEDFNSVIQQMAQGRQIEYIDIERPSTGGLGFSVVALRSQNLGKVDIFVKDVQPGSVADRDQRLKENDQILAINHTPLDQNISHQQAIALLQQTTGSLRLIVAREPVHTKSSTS
# LRRC7, Q96NW7 = target: T4, LRRC7, Q96NW7; conditions: plain residues with an end cap or a label only (N-terminal biotin on a linker: ttds)
# T4 sequence (Q96NW7 1440-1537, limits assumed, looked up): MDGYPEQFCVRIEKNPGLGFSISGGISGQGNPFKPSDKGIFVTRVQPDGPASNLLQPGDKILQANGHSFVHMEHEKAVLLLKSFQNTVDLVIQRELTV
# PARD3B_1, Q8TEW8 = target: T5, PARD3B_1, Q8TEW8; conditions: plain residues with an end cap or a label only (N-terminal biotin on a linker: ttds)
# T5 sequence (Q8TEW8 196-299, limits assumed, looked up): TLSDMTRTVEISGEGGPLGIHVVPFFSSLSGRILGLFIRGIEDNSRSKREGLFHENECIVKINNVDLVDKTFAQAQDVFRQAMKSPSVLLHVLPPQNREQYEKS
# PDZD2_2, O15018 = target: T6, PDZD2_2, O15018; conditions: plain residues with an end cap or a label only (N-terminal biotin on a linker: ttds)
# T6 sequence (O15018 329-429, limits assumed, looked up): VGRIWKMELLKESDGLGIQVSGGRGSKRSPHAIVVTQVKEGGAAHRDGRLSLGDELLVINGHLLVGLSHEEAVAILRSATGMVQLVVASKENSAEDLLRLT
# SNTA1, Q13424 = target: T7, SNTA1, Q13424
# T7 sequence (Q13424 82-180, limits assumed, looked up): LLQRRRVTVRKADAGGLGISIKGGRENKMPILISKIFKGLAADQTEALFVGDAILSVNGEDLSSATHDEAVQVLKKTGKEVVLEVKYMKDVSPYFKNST
# SYNJ2BP, P57105 = target: T8, SYNJ2BP, P57105; conditions: plain residues with an end cap or a label only (N-terminal biotin on a linker: ttds)
# T8 sequence (P57105 8-110, limits assumed, looked up): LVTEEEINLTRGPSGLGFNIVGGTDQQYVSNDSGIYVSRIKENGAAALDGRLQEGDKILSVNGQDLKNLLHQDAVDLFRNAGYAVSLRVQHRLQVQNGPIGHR
# APBA2_1, Q99767 = target: T9, APBA2_1, Q99767; conditions: plain residues with an end cap or a label only (N-terminal biotin on a linker: ado-ado)
# T9 sequence (Q99767 563-664, limits assumed, looked up): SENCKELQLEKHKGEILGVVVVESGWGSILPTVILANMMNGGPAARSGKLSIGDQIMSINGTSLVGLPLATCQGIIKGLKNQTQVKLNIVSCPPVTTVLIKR
# ARHGEF12, Q9NZN5-2 = conditions: plain residues with an end cap or a label only (N-terminal biotin on a linker: ado-ado)
# ARHGEF12, Q9NZN5-2, sequence (Q9NZN5 other isoform, or with tags, fused parts or gaps): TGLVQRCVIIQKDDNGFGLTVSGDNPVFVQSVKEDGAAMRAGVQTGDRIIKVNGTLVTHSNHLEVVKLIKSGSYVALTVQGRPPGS
# CASK, O14936 = conditions: plain residues with an end cap or a label only (N-terminal biotin on a linker: ado-ado)
# CASK, O14936, sequence (O14936 487-570): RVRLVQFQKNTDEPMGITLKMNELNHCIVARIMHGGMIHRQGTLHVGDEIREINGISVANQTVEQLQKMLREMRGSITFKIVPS
# DLG1_2, Q12959 = conditions: plain residues with an end cap or a label only (N-terminal biotin on a linker: ado-ado)
# DLG1_2, Q12959, sequence (Q12959 314-412): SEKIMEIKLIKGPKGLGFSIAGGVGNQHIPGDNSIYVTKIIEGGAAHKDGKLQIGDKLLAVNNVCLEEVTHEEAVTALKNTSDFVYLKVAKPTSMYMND
# DLG1_3, Q12959 = conditions: plain residues with an end cap or a label only (N-terminal biotin on a linker: ado-ado)
# DLG1_3, Q12959, sequence (Q12959 457-571): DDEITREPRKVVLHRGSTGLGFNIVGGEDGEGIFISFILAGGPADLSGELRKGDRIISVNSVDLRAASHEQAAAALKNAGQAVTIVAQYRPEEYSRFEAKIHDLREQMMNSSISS
# DLG2_2, Q15700 = conditions: plain residues with an end cap or a label only (N-terminal biotin on a linker: ado-ado)
# DLG2_2, Q15700, sequence (Q15700 189-283): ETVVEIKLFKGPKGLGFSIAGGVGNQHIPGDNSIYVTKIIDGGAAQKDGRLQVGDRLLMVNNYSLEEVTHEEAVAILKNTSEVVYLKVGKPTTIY
# DLG3_1, Q92796 = target: T10, DLG3_1, Q92796; conditions: plain residues with an end cap or a label only (N-terminal biotin on a linker: ado-ado)
# T10 sequence (Q92796 125-227, limits assumed, looked up): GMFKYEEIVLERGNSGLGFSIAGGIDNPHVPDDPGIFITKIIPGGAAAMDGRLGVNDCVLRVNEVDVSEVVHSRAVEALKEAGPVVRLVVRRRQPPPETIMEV
# DLG3_3, Q92796 = target: T11, DLG3_3, Q92796; conditions: plain residues with an end cap or a label only (N-terminal biotin on a linker: ado-ado)
# T11 sequence (Q92796 374-475, limits assumed, looked up): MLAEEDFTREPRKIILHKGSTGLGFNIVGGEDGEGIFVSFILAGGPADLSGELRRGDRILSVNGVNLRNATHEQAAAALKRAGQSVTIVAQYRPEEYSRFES
# DLG4_1, P78352 = conditions: plain residues with an end cap or a label only (N-terminal biotin on a linker: ado-ado)
# DLG4_1, P78352, sequence (P78352 62-152): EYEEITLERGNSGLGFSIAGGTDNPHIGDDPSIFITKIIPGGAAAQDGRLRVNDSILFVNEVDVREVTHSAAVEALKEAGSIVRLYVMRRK
# DLG4_2, P78352 = conditions: plain residues with an end cap or a label only (N-terminal biotin on a linker: ado-ado)
# DLG4_2, P78352, sequence (P78352 155-259): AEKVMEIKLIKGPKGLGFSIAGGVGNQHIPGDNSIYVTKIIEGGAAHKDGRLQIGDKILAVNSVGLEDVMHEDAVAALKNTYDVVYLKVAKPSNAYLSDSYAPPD
# FRMPD2_1, Q68DX3 = conditions: plain residues with an end cap or a label only (N-terminal biotin on a linker: ado-ado)
# FRMPD2_1, Q68DX3, sequence (Q68DX3 770-861): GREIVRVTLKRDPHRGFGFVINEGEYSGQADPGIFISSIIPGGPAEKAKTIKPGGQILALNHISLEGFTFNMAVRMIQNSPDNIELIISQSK
# GRIP2_5, Q9C0E4 = conditions: plain residues with an end cap or a label only (N-terminal biotin on a linker: ado-ado)
# GRIP2_5, Q9C0E4, sequence (Q9C0E4 544-642): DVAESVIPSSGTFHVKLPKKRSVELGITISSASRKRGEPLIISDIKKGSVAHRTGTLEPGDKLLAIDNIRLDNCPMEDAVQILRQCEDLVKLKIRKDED
# GRIP2_6, Q9C0E4 = conditions: plain residues with an end cap or a label only (N-terminal biotin on a linker: ado-ado)
# GRIP2_6, Q9C0E4, sequence (Q9C0E4 648-740): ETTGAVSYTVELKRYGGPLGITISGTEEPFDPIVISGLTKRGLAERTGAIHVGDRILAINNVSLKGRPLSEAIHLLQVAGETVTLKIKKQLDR
# HTRA2, O43464 = conditions: plain residues with an end cap or a label only (N-terminal biotin on a linker: ado-ado)
# HTRA2, O43464, sequence (O43464 355-458): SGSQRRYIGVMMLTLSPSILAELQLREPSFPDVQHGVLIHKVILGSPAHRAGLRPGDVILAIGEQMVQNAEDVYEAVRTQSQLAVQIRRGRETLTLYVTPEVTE
# IL16_4, Q14005 = conditions: plain residues with an end cap or a label only (N-terminal biotin on a linker: ado-ado)
# IL16_4, Q14005, sequence (Q14005 1229-1329): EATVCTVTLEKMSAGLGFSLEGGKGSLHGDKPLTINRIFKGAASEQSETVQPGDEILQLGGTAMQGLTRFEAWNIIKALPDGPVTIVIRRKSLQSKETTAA
# Inadl_4, Q8NI35 = conditions: plain residues with an end cap or a label only (N-terminal biotin on a linker: ado-ado)
# Inadl_4, Q8NI35, sequence (Q8NI35 547-651): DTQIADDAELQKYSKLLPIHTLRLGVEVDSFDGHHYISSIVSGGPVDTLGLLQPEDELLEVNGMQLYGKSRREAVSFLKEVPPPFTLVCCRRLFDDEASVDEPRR
# Inadl_8, Q8NI35 = conditions: plain residues with an end cap or a label only (N-terminal biotin on a linker: ado-ado)
# Inadl_8, Q8NI35, sequence (Q8NI35 1425-1530): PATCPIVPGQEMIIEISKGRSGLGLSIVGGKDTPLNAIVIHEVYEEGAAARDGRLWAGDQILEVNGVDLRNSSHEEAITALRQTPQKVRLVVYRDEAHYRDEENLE
# Inadl_9, Q8NI35 = conditions: plain residues with an end cap or a label only (N-terminal biotin on a linker: ado-ado)
# Inadl_9, Q8NI35, sequence (Q8NI35 1530-1615): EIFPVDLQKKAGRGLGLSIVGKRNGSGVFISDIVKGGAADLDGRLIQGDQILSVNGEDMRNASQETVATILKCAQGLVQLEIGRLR
# MAGI2_2, Q86UL8 = conditions: plain residues with an end cap or a label only (N-terminal biotin on a linker: ado-ado)
# MAGI2_2, Q86UL8, sequence (Q86UL8 410-522): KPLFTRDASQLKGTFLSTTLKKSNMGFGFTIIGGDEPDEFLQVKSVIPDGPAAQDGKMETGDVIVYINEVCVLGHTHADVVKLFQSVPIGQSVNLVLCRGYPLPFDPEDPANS
# MAGI2_4, Q86UL8 = conditions: plain residues with an end cap or a label only (N-terminal biotin on a linker: ado-ado)
# MAGI2_4, Q86UL8, sequence (Q86UL8 772-865): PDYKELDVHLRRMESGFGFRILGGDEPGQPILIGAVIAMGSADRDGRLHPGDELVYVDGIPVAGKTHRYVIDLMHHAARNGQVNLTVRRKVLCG
# MAGI3_2, Q5TCQ9 = conditions: plain residues with an end cap or a label only (N-terminal biotin on a linker: ado-ado)
# MAGI3_2, Q5TCQ9, sequence (Q5TCQ9 398-503): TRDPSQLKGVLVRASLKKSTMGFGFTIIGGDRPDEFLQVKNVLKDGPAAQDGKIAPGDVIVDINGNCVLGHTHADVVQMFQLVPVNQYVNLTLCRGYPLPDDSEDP
# MAST2, Q6P0Q8 = conditions: plain residues with an end cap or a label only (N-terminal biotin on a linker: ado-ado)
# MAST2, Q6P0Q8, sequence (Q6P0Q8 1099-1202): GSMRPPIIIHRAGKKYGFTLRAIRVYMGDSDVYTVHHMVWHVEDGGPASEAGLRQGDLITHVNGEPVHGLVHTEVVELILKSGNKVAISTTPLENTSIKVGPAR
# MPDZ_10, O75970 = target: T12, MPDZ_10, O75970; conditions: plain residues with an end cap or a label only (N-terminal biotin on a linker: ado-ado)
# T12 sequence (O75970 1624-1722, limits assumed, looked up): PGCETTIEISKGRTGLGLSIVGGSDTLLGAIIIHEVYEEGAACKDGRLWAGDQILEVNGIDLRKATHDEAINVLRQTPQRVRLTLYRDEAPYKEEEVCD
# NHERF3_3, Q5T2W1 = target: T13, NHERF3_3, Q5T2W1; conditions: plain residues with an end cap or a label only (N-terminal biotin on a linker: ado-ado)
# T13 sequence (Q5T2W1 238-333, limits assumed, looked up): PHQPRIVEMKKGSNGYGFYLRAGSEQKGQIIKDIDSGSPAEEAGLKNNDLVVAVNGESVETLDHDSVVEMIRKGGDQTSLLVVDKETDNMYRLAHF
# NHERF4_1, Q86UT5-2 = conditions: plain residues with an end cap or a label only (N-terminal biotin on a linker: ado-ado)
# NHERF4_1, Q86UT5-2, sequence (Q86UT5 other isoform, or with tags, fused parts or gaps): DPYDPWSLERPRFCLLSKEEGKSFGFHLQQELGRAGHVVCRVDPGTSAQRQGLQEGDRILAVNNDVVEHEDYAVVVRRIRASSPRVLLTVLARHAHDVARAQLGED
# NHERF4_4, Q86UT5 = conditions: plain residues with an end cap or a label only (N-terminal biotin on a linker: ado-ado)
# NHERF4_4, Q86UT5, sequence (Q86UT5 464-550): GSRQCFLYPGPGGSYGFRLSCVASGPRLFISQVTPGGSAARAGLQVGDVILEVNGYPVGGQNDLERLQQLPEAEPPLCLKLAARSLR
# PDZRN4_1, Q6ZMN7 = conditions: plain residues with an end cap or a label only (N-terminal biotin on a linker: ado-ado)
# PDZRN4_1, Q6ZMN7, sequence (Q6ZMN7 213-318): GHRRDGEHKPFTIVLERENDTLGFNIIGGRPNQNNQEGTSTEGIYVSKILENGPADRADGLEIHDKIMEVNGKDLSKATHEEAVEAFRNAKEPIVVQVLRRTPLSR
# PTPN3, P26045 = conditions: plain residues with an end cap or a label only (N-terminal biotin on a linker: ado-ado)
# PTPN3, P26045, sequence (P26045 505-587): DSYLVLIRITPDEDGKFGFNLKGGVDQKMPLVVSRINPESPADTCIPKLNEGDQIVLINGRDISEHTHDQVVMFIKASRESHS
# SHANK1, Q9Y566 = target: T14, SHANK1, Q9Y566; conditions: plain residues with an end cap or a label only (N-terminal biotin on a linker: ado-ado)
# T14 sequence (Q9Y566 658-767, limits assumed, looked up): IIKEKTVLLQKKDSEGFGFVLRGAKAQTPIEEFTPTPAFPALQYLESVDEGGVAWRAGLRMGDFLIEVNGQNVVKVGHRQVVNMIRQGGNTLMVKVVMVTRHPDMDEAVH
# SNTG1, Q9NSN8 = target: T15, SNTG1, Q9NSN8; conditions: plain residues with an end cap or a label only (N-terminal biotin on a linker: ado-ado)
# T15 sequence (Q9NSN8 52-150, limits assumed, looked up): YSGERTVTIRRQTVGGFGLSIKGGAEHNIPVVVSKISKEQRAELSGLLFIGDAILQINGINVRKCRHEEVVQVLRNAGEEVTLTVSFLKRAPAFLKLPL
# SNX27, Q96L92 = conditions: plain residues with an end cap or a label only (N-terminal biotin on a linker: ado-ado)
# TIAM2, Q8IVF5 = target: T16, TIAM2, Q8IVF5; conditions: plain residues with an end cap or a label only (N-terminal biotin on a linker: ado-ado)
# T16 sequence (Q8IVF5 885-986, limits assumed, looked up): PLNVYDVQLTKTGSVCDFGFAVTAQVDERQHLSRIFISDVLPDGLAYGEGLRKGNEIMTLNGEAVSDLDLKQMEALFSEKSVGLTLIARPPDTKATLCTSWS
# TJP1_2, Q07157 = conditions: plain residues with an end cap or a label only (N-terminal biotin on a linker: ado-ado)
# TJP1_2, Q07157, sequence (Q07157 181-274): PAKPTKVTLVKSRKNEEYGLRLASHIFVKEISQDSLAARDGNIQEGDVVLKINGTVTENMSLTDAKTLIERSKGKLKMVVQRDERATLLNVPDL
# TJP1_3, Q07157 = conditions: plain residues with an end cap or a label only (N-terminal biotin on a linker: ado-ado)
# TJP1_3, Q07157, sequence (Q07157 416-512): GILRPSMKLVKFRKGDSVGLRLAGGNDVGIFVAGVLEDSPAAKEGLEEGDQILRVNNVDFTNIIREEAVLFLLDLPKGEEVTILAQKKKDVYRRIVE
# TX1BP3, O14907 = target: T17, TX1BP3, O14907; conditions: plain residues with an end cap or a label only (N-terminal biotin on a linker: ado-ado)
# T17 sequence (O14907 10-122, limits assumed, looked up): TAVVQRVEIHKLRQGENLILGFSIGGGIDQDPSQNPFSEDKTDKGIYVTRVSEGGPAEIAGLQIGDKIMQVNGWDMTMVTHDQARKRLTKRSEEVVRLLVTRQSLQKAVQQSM
# [1] = plain residues with an end cap or a label only (N-terminal biotin on a linker: ttds)
# [2] = plain residues with an end cap or a label only (N-terminal biotin on a linker: ado-ado)
binder,measurement,setting,value
"NDPAWDETNL [ARHGEF7, Q14155]",pKd,"APBA1_2, Q02410",3.5
same,pKd,"ARHGAP21, Q5T5U3",3.82
same,pKd,"ARHGEF11, O15085; [1]",3.69
same,pKd,"FRMPD3, Q5JV73",3.65
same,pKd,"GIPC2, Q8TF65",3.61
same,pKd,"GRID2IP_2, A4D2P6",3.63
same,pKd,"Inadl_1, Q8NI35",3.51
same,pKd,"LRRC7, Q96NW7",3.49
same,pKd,"PARD3B_1, Q8TEW8",3.54
same,pKd,"PDZD2_2, O15018",3.82
same,pKd,"SNTA1, Q13424; [1]",3.88
same,pKd,"SYNJ2BP, P57105",3.8
"KSGKQTMLVV [TRIM29, Q14134]",pKd,"APBA2_1, Q99767",3.5
same,pKd,"ARHGEF11, O15085; [2]",3.89
same,pKd,"ARHGEF12, Q9NZN5-2",3.68
same,pKd,"CASK, O14936",3.48
same,pKd,"DLG1_2, Q12959",3.67
same,pKd,"DLG1_3, Q12959",3.69
same,pKd,"DLG2_2, Q15700",3.48
same,pKd,"DLG3_1, Q92796",3.63
same,pKd,"DLG3_3, Q92796",3.81
same,pKd,"DLG4_1, P78352",3.56
same,pKd,"DLG4_2, P78352",3.79
same,pKd,"FRMPD2_1, Q68DX3",3.47
same,pKd,"GRIP2_5, Q9C0E4",3.59
same,pKd,"GRIP2_6, Q9C0E4",3.55
same,pKd,"HTRA2, O43464",3.68
same,pKd,"IL16_4, Q14005",3.65
same,pKd,"Inadl_4, Q8NI35",3.49
same,pKd,"Inadl_8, Q8NI35",3.69
same,pKd,"Inadl_9, Q8NI35",3.49
same,pKd,"MAGI2_2, Q86UL8",3.51
same,pKd,"MAGI2_4, Q86UL8",3.55
same,pKd,"MAGI3_2, Q5TCQ9",3.5
same,pKd,"MAST2, Q6P0Q8",3.62
same,pKd,"MPDZ_10, O75970",3.48
same,pKd,"NHERF3_3, Q5T2W1",3.75
same,pKd,"NHERF4_1, Q86UT5-2",3.6
same,pKd,"NHERF4_4, Q86UT5",3.8
same,pKd,"PDZRN4_1, Q6ZMN7",3.68
same,pKd,"PTPN3, P26045",3.71
same,pKd,"SHANK1, Q9Y566",3.52
same,pKd,"SNTA1, Q13424; [2]",3.49
same,pKd,"SNTG1, Q9NSN8",3.5
same,pKd,"SNX27, Q96L92",3.8
same,pKd,"TIAM2, Q8IVF5",3.64
same,pKd,"TJP1_2, Q07157",3.88
same,pKd,"TJP1_3, Q07157",3.61
same,pKd,"TX1BP3, O14907",3.88
